From US6586222

What was measured:
[1] = system: recombinant human proPR-3 secreted from Sf9 insect cells
[2] = target: recombinant human proPR-3 secreted from Sf9 insect cells (human) (UniProt P24158); assay: cell-based or functional assay
Sequence of recombinant human proPR-3 secreted from Sf9 insect cells (human) (P24158 26-256 V119I): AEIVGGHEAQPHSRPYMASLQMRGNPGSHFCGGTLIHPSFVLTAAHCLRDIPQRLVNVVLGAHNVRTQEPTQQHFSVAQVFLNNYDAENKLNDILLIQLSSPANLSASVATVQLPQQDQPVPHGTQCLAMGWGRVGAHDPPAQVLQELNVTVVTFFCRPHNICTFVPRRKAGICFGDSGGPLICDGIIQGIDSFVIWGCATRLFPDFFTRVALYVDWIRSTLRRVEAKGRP

Sequence of recombinant human proPR-3 secreted from Sf9 insect cells (chain, as listed by the source): as the sequence (P24158 26-256 V119I) above

## bovine dipeptidyl peptidase I (Boehringer Mannheim)
[1]
  activation of proPR-3 (PR-3 activity on Boc-Ala-ONp after DPPI treatment): 1.25% (wt/wt) was determined the minimum amount of DPPI required to obtain complete activation of PR-3 in 3 hr. at 37 °C

## bovine dipeptidyl peptidase I (Boehringer Mannheim) (from UniProt Q3ZCJ8 25-463) (enzyme)
[2]
  N-terminal sequence of PR-3 after preparative DPPI activation: > 85%
